Results on one protein are retold here after article PMC9329959, “A Feedback Regulatory Loop Involving dTrbd/dTak1 in Controlling IMD Signaling in Drosophila Melanogaster” (Frontiers in Immunology, 2022).

This data set concerns the molecule itself. Put plainly: SDD-AGE; purified proteins loaded in 0.5 x TBE, 10% glycerol, 2% SDS at room temperature; 1.5% agarose gel with 0.1% SDS; immunoblot. Background: Immunoblotting shows a protein as a band on a membrane.

B1: GST-tagged dTrbd^FL (enzyme, Drosophila melanogaster, UniProt Q9VH90 1-778, looked up)
chain: MCDTKDDAQKWKCETCTYENYPSSLKCTMCQASKPLLNEDIFRLSPAQESCTVAEEAAAVEVAVMSPTPSSTCYSLQPQSQARQSNVADSEKWPCKVCTYLNWPRSLRCVQCCTKRGGEAIERGKKDMDNEADGDRAGEALQALRISGSEENLANKPVQLIGATASHRLSLSRGIDDATHLNNLANASHNQSQSQHRQPVLQQQMQLQLQPQQQRESSSSAAVPPQQQKQCYVSKWACNSCTYENWPRSIKCSMCGKTREREISGSQNDLHASSSLNSQEENQQQLQQPNVDTVSVNNSFNKKHIYQLGSSETINNCDTLQERQERRQRQIRRQVDWQWLNACLGVVENNYSAVEAYLSCGGNPARSLTSTEIAALNRNSAFDVGHTLIHLAIRFHREEMLPMLLDQISGSGPGIKRVPSYVAPDLAADIRRHFANTLRLRKSGLPCHYVQKHATFALPAEIEELPIPIQEQLYDELLDRDAQKQLETPPPALNWSLEITARLSSRMFVLWNRSAGDCLLDSAMQATWGVFDRDNILRRALADTLHQCGHVFFTRWKEYEMLQASMLHFTLEDSQFEEDWSTLLSLAGQPGSSLEQLHIFALAHILRRPIIVYGVKYVKSFRGEDIGYARFEGVYLPLFWDQNFCTKSPIALGYTRGHFSALVPMEPFTRIDGRRDDVEDVTYLPLMDCELKLLPIHFLTQSEVGNEESMMRQWLDVCVTDGGLLVAQQKLSKRPLLVAQMLEEWLNHYRRIAQVITAPFIRRPQITHYSSDGDSDEE
notes: dTrbd, Drosophila deubiquitinase, full length; also called GST-dTrbd^FL; source: E. coli BL21, purified (Glutathione Sepharose 4B)
B1: the binding result is listed as “binds”.
